Assay: soluble on expression in E. coli; label from the status in PepcDB or PDB records

Sequence	soluble on expression in E. coli
MSLRKNPYRLSDEIFGISFRTADRIAKSLGIDPYSKYRISSGIKYVLSRAATEGHTFLEEEMLKSYTSKLLDINIDSIEDALVSLVLNKSVYVDRNDGMSKIYLSSFYHAELGVCRKLVELSQVRYSADMEDFEERIKQVQKKEGIILADKQKEAIREAMTNGVLVITGGPGTGKTTIIKSIISLLESEGYEFALAAPTGRAAKRMSEATGYEAKTIHRLLEIGYTSNEDELVFMRTEDNPIEADVVIIDEMSMVDIILMYHLLKAIVCGTRLILVGDVDQLPSVGPGNVLRDIIKSGMIKTVKLSEIFRQAGESMIVVNAHRINRGEHPILNEREKDFFFVTRNSQNDILKTVVDLCTRRIPDTYGYDPMKQIQVLSPMRKGTVGVANLNIELQKVLNPEDGKEGHHHHHH	soluble
MCLAIPSKVIAIKDNVVLLETLGVQREASLDLMGESVKVGDYVLLHIGYVMSKIDEKEALESIELYQEMIARMNETQ	not soluble
MGSDKIHHHHHHMRKISVFDTTLRDGEQSAGVNLNFEEKMEIAKQLERLGVDIIEAGFPASSQGDFQSVKAIAETVKGSSVTGLARSVQKDIDAAWEALKSAEEPRIHLFIATSPIHMEHKLRMTPEQVIEKAVESVKYAASRFKHVQWSAEDASRSDFPFLAQIIEAVIQAGATVINLPDTVGYTTPQEIKRMFQYMKQNVPSIDKVSLSTHNHDDLGMAVANSLAAIQGGADQVECTINGIGERAGNASLEEIAVALNIRKDHYETETGLILKEIKRTSSLVSKLTGMVVPNNKAVVGANAFAHESGIHQDGVLKNKQTYEIITPEMVGVSSNSMVLGKHSGRHAFKTKVQELGFTGTDEQLNNIFKAFKDLADKKKEITEDDLFALMTEQTVGGETNHYELQTLQVNYGSNLTNTATITMKLPSGEVAEEAATGSGSVEAIYNTLERLLDAPVKLLDYRIQSITGGRDALADVYVQMDYQGVVSSGRGTAHDVLEASAKAYLNAVNRTINRKKYAEVYGSKVEV	not soluble
SADKEKKKKESILDLSKYIDKTIRVKFQGGREASGILKGFDPLLNLVLDGTIEYMRDPDDQYKLTEDTRQLGLVVCRGTSVVLICPQDGMEAIPNPFIQQQDA	soluble
MRKIIHVDMDCFFAAVEMRDNPALRDIPIAIGGSRERRGVISTANYPARKFGVRSAMPTGMALKLCPHLTLLPGRFDAYKEASNHIREIFSRYTSRIEPLSLDEAYLDVTDSVHCHGSATLIAQEIRQTIFNELQLTASAGVAPVKFLAKIASDMNKPNGQFVITPAEVPAFLQTLPLAKIPGVGKVSAAKLEAMGLRTCGDVQKCDLVMLLKRFGKFGRILWERSQGIDERDVNSERLRKSVGVERTMAEDIHHWSECEAIIERLYPELERRLAKVKPDLLIARQGVKLKFDDFQQTTQEHVWPRLNKADLIATARKTWDERRGGRGVRLVGLHVTLLDPQMERQLVLGL	soluble
MQLVVARIGRAHGIKGEVTVEVRTDEPELRLGPGAVLATDPASTGPLTIESGRVHSGRLLLRFAGVHDRTGAEALRNTLLIADVDPDERPEDEDEYYDHQLIDLDVVTEDGTEVGRITEISHLPTQDLFVVERPDGSEVYVPFVSEIVTGIDLDAQRAVIDPPPGLIDDRAEIASARDAGAEDAGDEALEHHHHHH	soluble
MSLTSSDVRNKYNFNSDWLLYVGDVPEAKQPRFSDSEWKKVTLPHAFNEDEAFRLSIDELTDTIMWYRKHFRLPANSKNKKVFVEFEGVRQGADFYINGQNVGLHENGVMAVGFDLTPYIKYGQENVIAVRIDNDWNYKERATGTKYQWSNKNFNANYGGIPKNVWLHVTDRLYQTLPLYSNLKTTGVYIYAEDIRVKSRKAIIHAESEIRNEYNRDKQVSYQVELIDRDGTSIQTFEGTKAVVKPGETITLKAASEVDNLHFWSWGYGYLYTVKTSLWVDGRKVDEVATRTGFRKTRFGKGMIWLNDRVIQMKGFAQRTSNEWPGVGMSVPAWLSDYSNHLMVEGNANLVRWMHVTPWKQDIESCDRVGLIQAMQAGDAEKDCEGRQWEQRTELMRDAIIYNRNNPSILFYECGNESISREHMIEMKAIRDLYDPHGGRAIGSREMLDIREAEYGGEMLYINKSAHHPMWAMEYCRDEGLRKYWDDYSYPYHKDGDGSNSYKSTVTNKVQKKVDARVYNRNQDSFTIENIIRWFDYWRERPGTGDRVSSGGVKIIFSDTNTHYRGVENYRRSGVTDAMRIPKDPFFAHQVMWDGWVDTECPRIYIVGHWNYNDTVVKPVYVVSSADKVELFLNGKSLGYGEQDYHFLYTFKDIAFVPGRLEAVGYDENGKECCRTQLQTAGKPEQIQLSFIQSPEGWKADGADMVLLQVEVMDKDGNRCPLANDLIHFEVEGPAEWRGGIAQGENNYILSKDLPVECGINRALIRSLTTAGNVRITAKADGLKPAEISLTSSPVEVKNGLSNYIPGDELEGRLTRGETPQTPSYKVSKVDVGIVSAIAGANNESTVNSFDDNELSEWRNDGKAATAWITYKLERAARVDEVCMKLTGWRMRSYPLEIYAGKELIWSGDTDKSLGYVHLDVKPVLTNEITIRLKGTSKEGDAFGQIVEVAAPVANELDLFKAKDGDKTGHELRIVEIEFKENLLKEGHHHHHH	soluble
MGSDKIHHHHHHMINHHPNSDVLAQFVAGTLPASVSVLVASHVELCSECTRAVQALTEQAAIDAFGESSQEALRDASQPAGLADVSGLDDFDGLDDFDTSDQFGDSDEFADCINAITALERDDTQQLPQTVTEIAVGGERIPLPTALRSIPLKEWQGMGKLSRSRLALDDGDLRMSLLHIDKGGSVPCHTHKGFEITLLLQGSFTDEMGEYRKGDFIWLDGQHTHQPVTEKGCVCLTVSSDAIRFTQGVSQLLNPIGRFIY	not soluble
MGHHHHHHSHMDPEVTLLLQCPGGGLPQEQIQAELSPAHDRRPLPGGDEAITAIWETRLKAQPWLFDAPKFRLHSATLAPIGSRGPQLLLRLGLTSYRDFLGTNWSSSAAWLRQQGATDWGDTQAYLADPLGVGAALATADDFLVFLRRSRQVAEAPGLVDVPGGHPEPQALCPGGSPQHQDLAGQLVVHELFSSVLQEICDEVNLPLLTLSQPLLLGIARNETSAGRASAEFYVQCSLTSEQVRKHYLSGGPEAHESTGIFFVETQNVRRLPETEMWAELCPSAKGAIILYNRVQGSPTGAALGSPALLPPL	not soluble
MKIAVVAANGKAGQLITKEAVERSLDVTAIVRSENKTVAHQVIQKDLFDLTKEDIAPFDVIVDAFGQMNKDKLNEHSQSLEHLSNLVSDSQKRLIIIGGAGSLYVDKAHTERLIDSPDMPEEVKPISMAQVKTFEEIKERDDVQWTFVCPAPDFQFDGEKTGAYKVSDDEVIGTHVSYADFAKAIVDEAMNPEHIQSRFAVFAKLEHHHHHH	soluble
MGSDKIHHHHHHMLKIKTSNLRPGIKLGKDIYSYDSQLLLTSGSTITQEHLDSFARRNIEEVFILDESPRMKPERDFEDVYQDALEVVNSFMVGAMLGSPLDFQEIDKTVDLLREQAFDAIDLFRQMRLMKNKGEYLFTHSINVSLLCILIGRWLKCDRNTIRELGIAGLLHDLGKVFIENDILNKPGKLTDQEYEKIKKHTVLGYNFICQNPDMNLEVANAALMHHERVDGSGYPSGLKGQLNFYAAVVAVADVYDAITSAHSYADKRSPYSAAEILWQESFGKLDARITKVFYDKITNFYVGNKVLLSNKKEGIVIYVDPFQPTRPIVMVEDEFYNLALDRSITIRDIID	not soluble
AHHHHHHGSVEVKKHKFPGVYVVIDDDGSEKIATKNLVPGQRVYGERVIKWEGEEYRIWNPHRSKLGAAIVNGLKNFPIKPGKSVLYLGIASGTTASHVSDIVGWEGKIYGIEFSPRVLRELVPIVEERRNIIPILGDATKPEEYRALVTKVDVIFEDVAQPTQAKILIDNAKAYLKRGGYGMIAVKSRSIDVTKEPEQVFKEVERELSEYFEVIERLNLEPYEKDHALFVVRKP	soluble
MAHHHHHHMNERTSGGAMSTIQFGGTMTTTLSQAKNMDFSNDSPRRRRNRHNVILFPNHRDRLACDPLNFFCVYATYEYRWSDTTLEAERNIFALVDSMVAAVRKAFDDAFERWKNMPAFVQHAHTLRSAVSFSSALSTNTLLHMYSHADNVARHTTLRKTLGSMLPSLPAANPRQEMNICSASSAGRSTFSKGALPRAAHRERREEEEEAVMKNLAKQWIPPHNGPKCRLVLDIVASRKTLGDDPVISDPYRLGQKVFSFTRRNYLREVINTFVGISDSGVTLVGRDILYPFRSTGGGSPKPSVKMNSLSGNRRNLSGSAISGLPIDSGDILGVAASGGVAAKVSGFEQILANTIPVPRMVPVPPTNTEKVDNIRLLVCFPPNDISGSVA	soluble
MGSDKIHHHHHHVEFIVGGATGEFYFLEMNTRLQVEHPVTEMITGLDLVEQMIRVAYGEKLKITQDDVKLQGWSMEARVYAEDPFRNFLPSTGRLTRYQPPAESQHVRVDTGVYEGGEISMFYDPMIAKLITYGPTRETAIAHMRQALDEYHIRGLSHNIPFLASLFSKERFVKGNLTTNFIAEEYPNGFTSSDLPSDDPTTLIAVAAAMKRRIVERNIQISGQFPGHEMKAPTEWTVLIGGTYHEVDVHPAPGGYAVVVEGEAVEVKTDWQIGDPLIRAKVDDRMVCVQVDRTGVSFRLSHSGVQAEVWVLTRPTAKLHKLMPFKAPPDMSKYLLSPMPGLLAKLLVEEGQEVKAGEPLAVVEAMKMENILKAERDAKIAKVHAKSGDSLAVDQKIIEFAS	not soluble
MGSDKIHHHHHHMFDVCLFKKMNILYATCFLDVSGVTRLNYDILARLAGKNNIYVCETASDGRLTSKLENHFRDSFGEPFKLFRYPLQDRYRRFLEYLDSNAIDLVFNTHSLWVYEHIAKLKKDRSNLKVVDSLHVLEPYCFRGGYPDISANRYVHPFIDKSIVISEHLLSYIKRSYSVDPGKFIIIRNGVDTTRFKKDSSLKGIFRNELGVPANFPLIGYIGRFSRQKRPDVFLDVAKHLLGKLGEVYFYMAGDGDLLDKSKKLADSLGISNRVSFVAPRDDIHIVLNSTDMLVLTSSYEGAPLTILEALATGVPVVASDVGAISEYVGTPYVVQRQGRGAEVDQFAEAILRGLNDNYPSIFDREIFSLDYVADSYARVFYDTAVRTSTTQEN	not soluble
NTQITIKMEPDTQALEEVVVIGYGAVKKRDLTGAVSSVKNEDITLTPATNPMQALQGRVAGLDITQASGQPGEGPKLQLRGTRSFTASGDPMFIIDGMPGDYSTLNPNDIESIEVLKDASSTAVYGAAGANGVIIITTKSGKAGK	not soluble
MKVYSKDDIVEQAKELAKMISETEEVDFFKKAEAQIHKNENVKRAIDEIKALQKQAVNLQHYGKWEALKKVEAEIDALQDKLDSIPVVQQFKSSQTYVNDLLQLVASTISNNVTDEILISTGGDVLKGETGAAVESKKGNCGC	not soluble
MAQVKTQRLYYSLKDYFKEKYGKRVQKITVALPFTCPNRDGTKGRGGCTYCYDGSKPSMLSPVIPLEVQIKEGIERAKKKYGEDIYFTIYYQSYTNTYADIETLKKVYDTALKFEGVVGIDVGTRPDCAPEEVLDLLEYYANKGLEVWVEYGLQSANFETLKKINRQHGVSDFVDAVLRTKKRNLKVCAHMIIGLPGETREDFIETAKLIASLPIDGIKIHPLHVIKGTVMEKQYLNEEFKTLTLEEYAEYCADVIELLPPDMVVHRITGETDEERLIAPEWCTFKYKNAVIQKVRETLERRGTYQGARYPFYKYGVLEHHHHHH	soluble
MGSDKIHHHHHHMAYRKQLTRLKAPYLKRILLDPGRVEDWEKYPWNLPLFRGREFELEFTAPITIIVGENGTGKSTLLEAIGALAGYDEAGGGKGYMPVDHSRAIDKSGAALADNFRCHWLPKVTAGWFFRAESFYSVARYLDEAARESGATPPDFLSWSHGEGFIRFFEERCRRQGIYILDEPESALSPSRQIELLKMLRRMDQSGTAQVIMATHSPLLMACPGARLFRISRFGLEPADFRDTDHFRMLRDFSNDPDGFLAEALYEDEA	not soluble

Source: the DeepSol protein solubility set
